Reference: PMC8380825 (Journal of molecular biology, 2021)
Values joined by “and” are separate entries in the source; they are usually repeats but may differ in a detail not shown here. Equal entries are not always repeated. Where two headings read alike, the source gives them in different places. Where no end group is shown, it is not given here. TAMRA = 5(6)-carboxytetramethylrhodamine

Columns and labels:
NPR-11 = biological target: T1, NPR-11 (Caenorhabditis elegans, UniProt Q18179); test: cAMP reporter gene assay; format: cell-based, C. elegans; conditions: wild type NPR-11
T1 sequence (Q18179 1-402): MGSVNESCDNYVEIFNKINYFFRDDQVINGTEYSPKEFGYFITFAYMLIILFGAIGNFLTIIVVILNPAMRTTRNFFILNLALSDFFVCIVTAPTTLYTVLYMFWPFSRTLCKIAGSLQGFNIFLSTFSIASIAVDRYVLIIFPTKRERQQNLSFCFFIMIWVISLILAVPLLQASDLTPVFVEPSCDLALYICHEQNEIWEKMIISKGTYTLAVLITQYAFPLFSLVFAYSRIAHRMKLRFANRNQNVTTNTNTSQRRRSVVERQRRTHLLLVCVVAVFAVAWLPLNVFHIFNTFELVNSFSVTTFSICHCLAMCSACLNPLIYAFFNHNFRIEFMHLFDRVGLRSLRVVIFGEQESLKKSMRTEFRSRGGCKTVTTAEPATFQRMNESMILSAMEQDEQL

NPR-1 [1] = biological target: T2, NPR-1 (Caenorhabditis elegans, UniProt Q18534); test: cAMP reporter gene assay; format: cell-based, C. elegans; conditions: wild type NPR-1
T2 sequence (Q18534 1-457): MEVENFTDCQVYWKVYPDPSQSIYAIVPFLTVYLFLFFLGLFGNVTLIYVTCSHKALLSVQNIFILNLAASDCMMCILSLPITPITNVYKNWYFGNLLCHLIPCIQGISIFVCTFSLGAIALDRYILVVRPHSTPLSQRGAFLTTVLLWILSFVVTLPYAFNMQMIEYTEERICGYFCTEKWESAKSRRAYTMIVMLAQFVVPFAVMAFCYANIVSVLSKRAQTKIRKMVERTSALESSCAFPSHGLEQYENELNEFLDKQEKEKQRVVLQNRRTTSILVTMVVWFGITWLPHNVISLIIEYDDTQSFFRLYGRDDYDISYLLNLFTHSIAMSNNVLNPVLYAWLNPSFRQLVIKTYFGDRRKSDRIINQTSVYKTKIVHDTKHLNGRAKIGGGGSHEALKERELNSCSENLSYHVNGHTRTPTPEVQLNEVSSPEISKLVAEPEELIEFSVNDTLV

[2] = biological target: T3, Nluc-NPR-1-eYFP (C. elegans neuropeptide receptor NPR-1, wild type) (C. elegans) (UniProt Q18534)
T3 sequence: T2 sequence (Q18534 1-457)

NPR-1 [3] = biological target: T2, NPR-1; test: NanoBRET displacement binding assay, Nluc-NPR-1; set-up: species or system C. elegans; conditions: HEK293 membranes, 100 nM [TAMRA]-FLP-21 tracer, 90 min, room temperature
NPR-1 mutants [4] = biological target: NPR-1 mutants (Caenorhabditis elegans, UniProt Q18534, E180D); test: cAMP reporter gene assay; format: cell-based, C. elegans; conditions: NPR-1 E^5.27D
NPR-1 mutants (Caenorhabditis elegans, UniProt Q18534, E180D), sequence (Q18534 whole entry E180D): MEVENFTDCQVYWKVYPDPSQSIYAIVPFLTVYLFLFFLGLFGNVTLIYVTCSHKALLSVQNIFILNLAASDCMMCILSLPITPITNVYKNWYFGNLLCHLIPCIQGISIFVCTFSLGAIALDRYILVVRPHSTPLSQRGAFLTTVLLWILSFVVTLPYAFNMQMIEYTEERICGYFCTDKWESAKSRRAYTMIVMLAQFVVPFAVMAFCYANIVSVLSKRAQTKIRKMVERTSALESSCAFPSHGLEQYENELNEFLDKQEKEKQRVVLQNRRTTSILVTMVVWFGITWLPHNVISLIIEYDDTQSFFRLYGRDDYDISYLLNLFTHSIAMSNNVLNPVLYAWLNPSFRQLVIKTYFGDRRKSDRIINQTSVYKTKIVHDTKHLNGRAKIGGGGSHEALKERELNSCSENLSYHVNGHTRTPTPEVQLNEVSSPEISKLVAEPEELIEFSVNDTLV

NPR-1 mutants [5] = biological target: NPR-1 mutants (Caenorhabditis elegans, UniProt Q18534, E301A); test: cAMP reporter gene assay; format: cell-based, C. elegans; conditions: NPR-1 E^6.59A
NPR-1 mutants (Caenorhabditis elegans, UniProt Q18534, E301A), sequence (Q18534 whole entry E301A): as the sequence (Q18534 whole entry E180D) above, with D180E, E301A counted along it

NPR-11 mutants = NPR-11 mutants (Caenorhabditis elegans, UniProt Q18179, E196D); test: cAMP reporter gene assay; format: cell-based, C. elegans; conditions: NPR-11 E^5.23D
NPR-11 mutants, sequence (Q18179 whole entry E196D): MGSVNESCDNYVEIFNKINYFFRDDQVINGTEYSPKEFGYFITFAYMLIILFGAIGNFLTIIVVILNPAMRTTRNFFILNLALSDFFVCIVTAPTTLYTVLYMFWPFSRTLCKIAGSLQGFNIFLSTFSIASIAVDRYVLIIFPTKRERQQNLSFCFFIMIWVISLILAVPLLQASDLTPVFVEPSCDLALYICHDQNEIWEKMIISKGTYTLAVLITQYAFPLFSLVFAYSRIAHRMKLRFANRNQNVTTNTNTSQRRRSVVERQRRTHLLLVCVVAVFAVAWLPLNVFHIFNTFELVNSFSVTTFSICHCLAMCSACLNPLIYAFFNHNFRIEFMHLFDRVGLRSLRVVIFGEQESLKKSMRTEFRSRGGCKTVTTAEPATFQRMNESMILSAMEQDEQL

[6] = biological target: T3, Nluc-NPR-1-eYFP (C. elegans neuropeptide receptor NPR-1, wild type) (C. elegans); remark: listed apart in the source
[7] = biological target: Nluc-NPR-11-eYFP Q3.32A (C. elegans) (UniProt Q18179); test: FRET or BRET
[8] = biological target: T4, Nluc-NPR-1-eYFP (C. elegans neuropeptide receptor NPR-1, wild type) (C. elegans, UniProt Q18534 1-457); test: cell-based or functional assay
T4 sequence (looked up): T2 sequence (Q18534 1-457)

[9] = biological target: T5, Nluc-NPR-11-eYFP (C. elegans neuropeptide receptor NPR-11, wild type) (C. elegans, UniProt Q18179 1-402); test: FRET or BRET
T5 sequence (looked up): T1 sequence (Q18179 1-402)

[10] = biological target: T5, Nluc-NPR-11-eYFP (C. elegans …); test: cell-based or functional assay
[11] = biological target: T4, Nluc-NPR-1-eYFP (C. elegans …); test: FRET or BRET
[12] = biological target: T3, Nluc-NPR-1-eYFP (C. elegans neuropeptide receptor NPR-1, wild type) (C. elegans); remark: listed apart in the source
[13] = biological target: T3, Nluc-NPR-1-eYFP (C. elegans neuropeptide receptor NPR-1, wild type) (C. elegans); remark: listed apart in the source
[14] = biological target: NPR-11-eYFP E5.23D (C. elegans), Q18179
[15] = biological target: Nluc-NPR-11-eYFP Q3.32H (C. elegans) (UniProt Q18179); test: FRET or BRET
[16] = biological target: NPR-1-eYFP E6.59A (C. elegans), Q18534
[17] = biological target: NPR-1-eYFP E6.59D (C. elegans), Q18534
[18] = biological target: NPR-1-eYFP E5.27D (C. elegans), Q18534
[19] = biological target: Nluc-NPR-11-eYFP Q3.32A (C. elegans) (UniProt Q18179)

“[R^15A]-FLP-34–1: FLP-34–1 variant, R^15 to alanine (ADISTFASAINNAGALRY-NH2)” was tested, and the “EC50 shift relative to wild type FLP-34–1” value (NPR-11) was > 900 fold.

In the case of “[F^9Cha]-FLP-21: FLP-21 variant, F^9 replaced with cyclohexylalanine”, the “EC50 shift (loss of potency) relative to wild type FLP-21” value (NPR-1 [1]) is reported as > 600 fold and the “EC50 shift relative to wild type FLP-21” value (NPR-11) is reported as 20 fold.

In the case of [F9Cha]-FLP-21 (peptide), the cAMP reporter gene assay (Gi/o), EC50 shift against wild type FLP-21 [2] is reported as > 600 fold.

For “[F^9Y]-FLP-21: FLP-21 variant, F^9 to tyrosine (GLGPRPLRY-NH2)”, the “Ki shift relative to wild type FLP-21” value (NPR-1 [3]) was 11 fold, the “EC50 shift (loss of potency) relative to wild type FLP-21” value (NPR-1 [1]) was 14 fold and the “receptor activation in words” value (NPR-11) was “wild type-like activity”.

In the case of “[P^6A]-FLP-21: FLP-21 variant, P^6 to alanine (GLGPRALRF-NH2)”, the “EC50 shift (loss of potency) relative to wild type FLP-21” value (NPR-1 [1]) is reported as 34 fold and the “EC50 shift relative to wild type FLP-21” value (NPR-11) is reported as 18 fold.

For “[R^8hArg]-FLP-21: FLP-21 variant, R^8 replaced with homoarginine”, the “EC50 shift (loss of potency) relative to wild type FLP-21” value (NPR-1 [1]) was > 900 fold and 976 fold, the “EC50 shift relative to wild type FLP-21” value (NPR-11) was 135 fold and the “EC50 shift relative to wild type FLP-21 at the same receptor mutant” value (NPR-1 mutants [4]) was 34 fold. The “EC50 shift relative to wild type FLP-21 at the same receptor mutant” value (NPR-1 mutants [5]) was 91 fold.

“[L^16A]-FLP-34–1: FLP-34–1 variant, L^16 to alanine (ADISTFASAINNAGRARY-NH2)” was tested, and the “EC50 shift relative to wild type FLP-34–1” value (NPR-11) was > 140 fold.

“[R^17hArg]-FLP-34–1: FLP-34–1 variant, R^17 to homoarginine” was tested, and the “EC50 shift compared to wild type FLP-34–1 at the same receptor mutant” value (NPR-11 mutants) was 0.9 fold and the “EC50 shift relative to wild type FLP-34–1” value (NPR-11) was > 70 fold and 77 fold.

With “[L^16Q]-FLP-34–1: FLP-34–1 variant, L^16 to glutamine (ADISTFASAINNAGRQRY-NH2)” the “receptor activation in words” value (NPR-11) was “impaired activation”.

Work on [R5hArg]-FLP-21 (peptide) yielded a cAMP reporter gene assay (Gi/o), EC50 of receptor activation [6] of 5.2 nM.

With “Ac-FLP-21: FLP-21 acetylated at the free N terminus (Ac-GLGPRPLRF-NH2)” the “EC50 shift (loss of potency) relative to wild type FLP-21” value (NPR-1 [1]) was 3 fold.

In the case of “[R^5A]-FLP-21: FLP-21 variant, R^5 to alanine (GLGPAPLRF-NH2)”, the “EC50 shift (loss of potency) relative to wild type FLP-21” value (NPR-1 [1]) is reported as 368 fold.

B1: [TAMRA]-FLP-21 (peptide)
peptide: {TAMRA}-GLGPRPLRF-NH2
With B1 the Kd [7] was 190 nM and the “cAMP reporter gene assay (Gi/o), reduction of potency against wild type FLP-21” value [8] was 12 fold.

B2: [L7A]-FLP-21 (peptide)
peptide: GLGPRPARF-NH2
For B2, the “fold reduction of Ki against FLP-21” value [9] was < 10 fold, the fold reduction of Ki against FLP-21 [7] was 100 fold and the “cAMP reporter gene assay (Gi/o), decrease of activity against wild type FLP-21” value [8] was 497 fold. The “cAMP reporter gene assay (Gi/o), EC50 shift against wild type FLP-21” value [10] was 10 fold.

B3: FLP-21 (GLGPRPLRFamide) (peptide)
peptide: GLGPRPLRF-NH2
B3 showed a Ki [9] of 107 nM.

B4: [F9Y]-FLP-21 (peptide)
peptide: GLGPRPLRY-NH2
For B4, the “fold shift of Ki against wild type FLP-21” value [11] was 11 fold and the “cAMP reporter gene assay (Gi/o), EC50 shift against wild type FLP-21” value [8] was 14 fold.

B5: [R5A]-FLP-21 (peptide)
peptide: GLGPAPLRF-NH2
Molecule B5 has a cAMP reporter gene assay (Gi/o), EC50 shift against wild type FLP-21 [12] of 368 fold.

B6: N-terminally acetylated FLP-21 (peptide)
peptide: Ac-GLGPRPLRF-NH2
Work on B6 yielded a cAMP reporter gene assay (Gi/o), reduction of potency against wild type FLP-21 [13] of 3 fold.

B7: FLP-34–1 (…amide) (peptide)
peptide: ADISTFASAINNAGRLRY-NH2
With B7 the cAMP reporter gene assay (Gi/o), EC50 against the wild type receptor [14] was 92 fold.

B8: FLP-34–1 (ADISTFASAINNAGRLRYamide) (peptide)
peptide: ADISTFASAINNAGRLRY-NH2
With B8 the Ki [9] was 107 nM.

B9: [P6A]-FLP-21 (peptide)
peptide: GLGPRALRF-NH2
B9 gave a cAMP reporter gene assay (Gi/o), decrease of activity against wild type FLP-21 [12] of 34 fold.

B10: [TAMRA]-FLP-34–1 (peptide)
peptide: {TAMRA}-ADISTFASAINNAGRLRY-NH2
In the case of B10, the fold reduction of binding affinity against wild type NPR-11 [15] is reported as 4 fold.

B11: FLP-21 (…amide) (peptide)
peptide: GLGPRPLRF-NH2
B11 gave a cAMP reporter gene assay (Gi/o), EC50 of receptor activation [16] of 20 nM, a cAMP reporter gene assay (Gi/o), EC50 of receptor activation [17] of 0.13 nM and a cAMP reporter gene assay (Gi/o), EC50 of receptor activation [18] of 495 nM. It also gave a cAMP reporter gene assay (Gi/o), EC50 of receptor activation [19] of 0.1 nM.
